One test concerns the target T1, snFPITE-n1 (snFPITE) (Phascolopsis gouldii, UniProt Z9UHO8WHJ2).
T1 construct: native, purified from S. nudus intestine / intestinal fluid by chromatography
T1 sequence (Z9UHO8WHJ2 1-239): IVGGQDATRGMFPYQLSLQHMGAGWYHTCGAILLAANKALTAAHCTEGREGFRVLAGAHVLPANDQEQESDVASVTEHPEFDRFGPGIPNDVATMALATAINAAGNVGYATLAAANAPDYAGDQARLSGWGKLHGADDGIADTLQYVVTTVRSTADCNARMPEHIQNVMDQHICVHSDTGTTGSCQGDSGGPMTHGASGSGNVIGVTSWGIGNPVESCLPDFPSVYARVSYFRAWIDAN
Description: inhibition of fibrin lysis or plasminogen activation, SDS-PAGE. Type of test: biochemical. The settings on record: 2.5 mM, 30 min pre-incubation; purified native snFPITE (called snFPITE-n1); enzyme also purified on Arg-Sepharose 4B.

Test [1] addresses plasminogen, biotin-labeled (human). Description: BLI; GatorPrime (GatorPivot in the results), streptavidin (SA-XT) biosensors; biotin-labeled plasminogen or fibrinogen immobilised, snFPITE in solution; 30 °C, 1000 rpm; association 2–3 min, dissociation 2–5 min.
Test [2] has as its target fibrinogen, biotin-labeled (UniProt P02671). The test is described as above.

Data on two compounds can be found in article PMC12022309, “A facultative plasminogen-independent thrombolytic enzyme from Sipunculus nudus” (Nature Communications, 2025).

fibrinogen, biotin-labeled, sequence (P02671 36-866, chain 1 of 3): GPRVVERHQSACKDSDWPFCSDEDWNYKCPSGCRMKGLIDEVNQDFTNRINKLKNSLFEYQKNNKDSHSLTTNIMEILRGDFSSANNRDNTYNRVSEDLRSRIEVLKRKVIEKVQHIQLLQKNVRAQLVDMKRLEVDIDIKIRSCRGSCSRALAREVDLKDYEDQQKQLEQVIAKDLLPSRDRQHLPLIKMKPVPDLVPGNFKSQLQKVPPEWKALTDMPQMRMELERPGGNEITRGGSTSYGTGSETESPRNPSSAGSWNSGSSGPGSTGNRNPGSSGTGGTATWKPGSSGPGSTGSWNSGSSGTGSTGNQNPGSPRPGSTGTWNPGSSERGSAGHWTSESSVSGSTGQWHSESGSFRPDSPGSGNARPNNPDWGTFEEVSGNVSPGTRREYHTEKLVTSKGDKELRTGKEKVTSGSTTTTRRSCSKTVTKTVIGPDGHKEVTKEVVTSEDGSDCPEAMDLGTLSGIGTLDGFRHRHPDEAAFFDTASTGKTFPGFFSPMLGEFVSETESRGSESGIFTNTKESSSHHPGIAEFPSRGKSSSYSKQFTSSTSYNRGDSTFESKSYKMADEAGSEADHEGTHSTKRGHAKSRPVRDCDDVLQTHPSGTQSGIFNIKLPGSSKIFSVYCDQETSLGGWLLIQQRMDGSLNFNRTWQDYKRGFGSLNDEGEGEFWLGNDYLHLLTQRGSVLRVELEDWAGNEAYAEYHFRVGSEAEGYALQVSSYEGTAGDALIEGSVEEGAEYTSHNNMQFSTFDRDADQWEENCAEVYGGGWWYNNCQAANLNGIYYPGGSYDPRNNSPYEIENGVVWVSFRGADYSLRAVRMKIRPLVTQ
fibrinogen, biotin-labeled, sequence (P02675 45-491, chain 2 of 3, further chain): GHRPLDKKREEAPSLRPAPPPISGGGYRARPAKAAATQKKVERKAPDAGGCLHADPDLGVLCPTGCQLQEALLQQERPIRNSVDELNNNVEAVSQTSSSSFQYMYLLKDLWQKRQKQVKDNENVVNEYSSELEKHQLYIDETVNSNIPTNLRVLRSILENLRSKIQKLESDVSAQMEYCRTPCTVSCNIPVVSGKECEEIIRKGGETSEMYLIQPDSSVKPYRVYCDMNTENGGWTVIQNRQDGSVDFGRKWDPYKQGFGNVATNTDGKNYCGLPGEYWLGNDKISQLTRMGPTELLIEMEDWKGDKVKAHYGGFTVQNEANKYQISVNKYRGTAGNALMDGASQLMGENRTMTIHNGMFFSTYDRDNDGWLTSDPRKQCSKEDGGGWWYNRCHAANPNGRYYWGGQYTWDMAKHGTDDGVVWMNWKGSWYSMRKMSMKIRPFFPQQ
fibrinogen, biotin-labeled, sequence (P02679 27-453, chain 3 of 3, further chain): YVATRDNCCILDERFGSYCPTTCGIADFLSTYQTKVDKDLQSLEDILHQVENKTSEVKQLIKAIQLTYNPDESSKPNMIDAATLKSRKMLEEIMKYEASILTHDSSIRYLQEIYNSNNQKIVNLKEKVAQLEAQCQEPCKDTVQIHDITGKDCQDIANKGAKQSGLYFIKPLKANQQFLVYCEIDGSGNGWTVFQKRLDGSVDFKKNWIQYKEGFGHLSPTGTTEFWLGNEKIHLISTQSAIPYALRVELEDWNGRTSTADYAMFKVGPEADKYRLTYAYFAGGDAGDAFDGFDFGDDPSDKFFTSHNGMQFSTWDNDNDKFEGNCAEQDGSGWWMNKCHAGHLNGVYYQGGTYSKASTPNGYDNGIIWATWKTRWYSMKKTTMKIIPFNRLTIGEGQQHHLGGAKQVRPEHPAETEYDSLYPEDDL

For the compound `N=C(N)NCCC[C@H](N)C(=O)O` [arginine], the “inhibition of fibrin lysis or plasminogen activation, SDS-PAGE” value on snFPITE-n1 (snFPITE) is reported as “Lys or Arg inhibited snFPITE-n1”.

In the case of “small facultative plasminogen-independent thrombolytic enzyme (snFPITE) from Sipunculus nudus”, the results for the Kd in test [1] and in test [2] were 54.7 nM and 0.133 nM, respectively.

The Kd is the concentration at which binding is half-saturated.
